Experimental findings from IntAct's records for PubMed 18242179 are described below.

B1: Calcium/calmodulin-dependent protein kinase kinase 1 (Homo sapiens), Q8N5S9 (parent)
chain: MEGGPAVCCQDPRAELVERVAAIDVTHLEEADGGPEPTRNGVDPPPRARAASVIPGSTSRLLPARPSLSARKLSLQERPAGSYLEAQAGPYATGPASHISPRAWRRPTIESHHVAISDAEDCVQLNQYKLQSEIGKGAYGVVRLAYNESEDRHYAMKVLSKKKLLKQYGFPRRPPPRGSQAAQGGPAKQLLPLERVYQEIAILKKLDHVNVVKLIEVLDDPAEDNLYLVFDLLRKGPVMEVPCDKPFSEEQARLYLRDVILGLEYLHCQKIVHRDIKPSNLLLGDDGHVKIADFGVSNQFEGNDAQLSSTAGTPAFMAPEAISDSGQSFSGKALDVWATGVTLYCFVYGKCPFIDDFILALHRKIKNEPVVFPEEPEISEELKDLILKMLDKNPETRIGVPDIKLHPWVTKNGEEPLPSEEEHCSVVEVTEEEVKNSVRLIPSWTTVILVKSMLRKRSFGNPFEPQARREERSMSAPGNLLVKEGFGEGGKSPELPGVQEDEAAS
partner: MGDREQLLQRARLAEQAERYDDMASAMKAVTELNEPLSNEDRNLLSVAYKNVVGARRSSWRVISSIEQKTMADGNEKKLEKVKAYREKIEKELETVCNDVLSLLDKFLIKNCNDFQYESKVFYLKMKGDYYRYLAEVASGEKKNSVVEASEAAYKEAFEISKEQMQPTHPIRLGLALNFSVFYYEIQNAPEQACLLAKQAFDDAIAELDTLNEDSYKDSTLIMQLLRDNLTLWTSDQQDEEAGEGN

Variants of B1 are the subject of the first test. The following applies: with 1433f_human YWHAH.
As to S52A;T108A;S458A;S475A, the “effect of a mutation on the interaction” value is on record as “decreasing interaction”.

Variants of B1 are the subject of a further test. To be noted: with 1433f_human YWHAH. This is another data set of the same source.
In the case of S52A;S74A;T108A;S475A, the “effect of a mutation on the interaction” value is “disrupting interaction”.

A further test covers variants of B1. To be noted: with 1433f_human YWHAH. The source holds these as a separate data set.
Turning to S475A, the “effect of a mutation on the interaction” value is “disrupting interaction”.
On the same count and under the same terms, then S74A, with “disrupting interaction”.

In a further test the parent is B1. To be noted: with 1433f_human YWHAH. The source holds these as a separate data set.
For S52A;S74A;S458A;S475A, the “effect of a mutation on the interaction” value is given as “disrupting interaction”.
